# Laboratory results as given in patent publication US20200339680A1.
# Legend:
# [1] = molecular target: human TMEM106B (human) (UniProt Q9NUM4); assay: FACS A549
# [2] = molecular target: human TMEM106B (human) (UniProt Q9NUM4); assay: FACS HeLa
# [3] = molecular target: human TMEM106B (human) (UniProt Q9NUM4); assay: FACS U251
# [4] = molecular target: mouse TMEM106B (mouse) (UniProt Q80X71); assay: FACS Neuro2a
Substance,MFI [1],MFI [2],MFI [3],MFI [4]
Negative ctrl #1 (antibody),148 MFI,152 MFI,165 MFI,220 MFI
Negative ctrl #2 (antibody),162 MFI,149 MFI,165 MFI,235 MFI
Negative ctrl #3 (antibody),95 MFI,143 MFI,164 MFI,216 MFI
